From article PMC5292967, “New Insights on Signal Propagation by Sensory Rhodopsin II/Transducer Complex” (Scientific Reports, 2017)
Numbering of substitutions follows the chain as printed. Names and notes keep the numbering of the source. Read-outs that look alike come from different tables or passages of the source. Blank lines part the entries; values can stand above or below the molecule they belong to.

Columns and labels:
[1] = target: T1, NpSRII/NpHtrII1-157 complex (sensory rhodopsin II with its cognate transducer) (Natronomonas pharaonis, UniProt P42196); assay: X-ray crystallography, trapped M intermediate; format: binding; conditions: active M state, light-induced; space group I212121; 1.9 A; covalent (retinal Schiff base, Lys205)
T1 construct: gene sop2; wild-type NpSRII with truncated transducer NpHtrII residues 1-157; produced in E. coli, reconstituted; 2:2 complex; with Sensory rhodopsin II transducer
T1 sequence (P42196 2-239): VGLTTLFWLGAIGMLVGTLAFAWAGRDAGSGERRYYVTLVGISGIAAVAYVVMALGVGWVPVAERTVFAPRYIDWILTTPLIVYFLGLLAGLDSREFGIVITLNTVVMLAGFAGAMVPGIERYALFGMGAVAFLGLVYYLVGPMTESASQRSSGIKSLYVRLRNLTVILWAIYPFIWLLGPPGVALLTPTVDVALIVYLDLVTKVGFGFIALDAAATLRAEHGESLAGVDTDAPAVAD
T1 sequence (P42259 1-157 partner): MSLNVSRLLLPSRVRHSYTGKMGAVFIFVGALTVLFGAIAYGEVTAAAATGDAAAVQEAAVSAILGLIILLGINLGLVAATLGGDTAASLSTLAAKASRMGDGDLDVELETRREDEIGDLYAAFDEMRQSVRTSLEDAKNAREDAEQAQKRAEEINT

[2] = target: T1, NpSRII/NpHtrII1-157 complex (sensory rhodopsin II with its cognate transducer); assay: X-ray crystallography; format: binding; conditions: ground state; space group I212121; 1.9 A; in meso crystals, pH 5.6; covalent (retinal Schiff base, Lys205)
[3] = target: T2, NpSRII/NpHtrII1-135 complex (Natronomonas pharaonis, UniProt P42196); assay: X-ray crystallography; format: binding; conditions: space group P21212; covalent (retinal Schiff base, Lys205); retinal isomer not stated separately for this crystal
T2 construct: gene sop2; wild-type NpSRII with truncated transducer NpHtrII residues 1-135; produced in E. coli, reconstituted; 2:2 complex; with Sensory rhodopsin II transducer
T2 sequence (P42259 1-135 G83F, form open, one chain of several): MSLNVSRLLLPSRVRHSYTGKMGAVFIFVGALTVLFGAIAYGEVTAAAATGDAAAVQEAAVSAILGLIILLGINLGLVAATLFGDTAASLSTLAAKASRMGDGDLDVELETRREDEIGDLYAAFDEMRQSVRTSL

[4] = target: T3, NpSRII/NpHtrII1-135 complex (Natronomonas pharaonis, UniProt P42196); assay: X-ray crystallography; format: binding; conditions: ground state; covalent (retinal Schiff base, Lys205); retinal isomer not stated separately for this crystal
T3 construct: gene sop2; wild-type NpSRII with truncated transducer NpHtrII residues 1-135; produced in E. coli, reconstituted; 2:2 complex; with Sensory rhodopsin II transducer
T3 sequence (P42196 2-239): T1 sequence (P42196 2-239)
T3 sequence (P42259 1-135 partner): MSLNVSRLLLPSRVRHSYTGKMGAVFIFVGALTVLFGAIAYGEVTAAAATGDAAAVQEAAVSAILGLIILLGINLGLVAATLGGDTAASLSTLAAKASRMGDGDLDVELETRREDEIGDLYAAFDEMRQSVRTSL

[5] = target: NpHtrII (Natronomonas pharaonis) (UniProt P42259); conditions: cited from earlier work
[6] = target: NpHtrII (Natronomonas pharaonis) (UniProt P42259); conditions: cited from earlier work; remark: listed apart in the source
[7] = target: T4, sensory rhodopsin II from N. pharaonis (NpSRII) (N. pharaonis, UniProt P42196 1-239, retinal bound through a Schiff base (Lys205)); assay: crystal structure; ground state, space group I2_(1)2_(1)2_(1), 1.9 Å; in meso crystallization (monooleoyl), 22 °C, 1 M Na/K phosphate pH 5.6, trehalose; conditions: both partners purified
T4 construct: sensory rhodopsin II (NpSRII), N. pharaonis, wild type; also called the receptor; source: E. coli, purified, reconstituted into a functional complex, and resolubilized
T4 sequence (looked up): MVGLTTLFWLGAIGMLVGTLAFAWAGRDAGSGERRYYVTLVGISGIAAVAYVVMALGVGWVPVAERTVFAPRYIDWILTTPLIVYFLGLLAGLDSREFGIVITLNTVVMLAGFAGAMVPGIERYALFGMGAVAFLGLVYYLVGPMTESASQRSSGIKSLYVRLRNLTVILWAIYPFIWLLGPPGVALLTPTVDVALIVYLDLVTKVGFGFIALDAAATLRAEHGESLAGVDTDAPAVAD

[8] = target: the molecule itself; assay: as above
[9] = target: T4, sensory rhodopsin II from N. pharaonis …; assay: crystal structure; ground state of the complex with NpHtrII 1-135 (PDB 5JJJ); in meso crystals; space group not tied to this entry in the text (P6_(4) likely); conditions: both partners purified
[10] = target: T4, sensory rhodopsin II from N. pharaonis …; assay: crystal structure; complex with the G83F mutant, space group P2_(1)2_(1)2, "V"-shape; crystallization conditions the same as for the wild type complex in the P6_(4) space group; conditions: both partners purified

Molecule: CC1=C(/C=C/C(C)=C/C=C/C(C)=C\C=O)C(C)(C)CCC1 [13-cis retinal]
- X-ray crystallography, trapped M intermediate [1]: the retinal chromophore switches from all-trans conformation to 13-cis

- X-ray crystallography [4]: 5JJJ (NpSRII/HtrII-135 ground state)
Molecule: CC1=C(/C=C/C(C)=C/C=C/C(C)=C/C=O)C(C)(C)CCC1 [all-trans retinal]
- X-ray crystallography [2]: the retinal chromophore switches from all-trans conformation to 13-cis
- X-ray crystallography [3]: crystal structure of the NpSRII/NpHtrII1–135-G83F mutant demonstrate different crystal packing

Molecule: NpSRII (active state) (from UniProt P42196)
- Kd [5]: 15 µM

Molecule: NpSRII (from UniProt P42196)
- Kd [6]: 0.1 µM

- binding result [7]: binds
B1: NpHtrII_(1-157), shortened cognate transducer of NpSRII (domain or fragment, N. pharaonis, UniProt P42259 1-157, looked up)
chain: T1 sequence (P42259 1-157 partner)
notes: NpHtrII, transducer of sensory rhodopsin II, N. pharaonis, residues 1-157 (transmembrane helices TM1 and TM2, HAMP1 and linker); only the transmembrane part is seen in the electron density; also called HtrII-157; the transducer; source: E. coli, purified, reconstituted into a functional complex, and resolubilized
- binding result [8]: binds

- binding result [9]: binds
B2: NpHtrII_(1-135), shortened transducer (domain or fragment, N. pharaonis, UniProt P42259 1-135, looked up)
chain: T3 sequence (P42259 1-135 partner)
notes: source: E. coli, purified, reconstituted into a functional complex, and resolubilized

- binding result [10]: binds
B3: NpHtrII_(1-135)-G83F mutant (domain or fragment, N. pharaonis, UniProt P42259 1-135, looked up)
chain: T3 sequence (P42259 1-135 partner) with G83F
notes: as for B2
